The text below walks through data of publication PMC4402506.

Test systems include EcoRV; RecQ (Escherichia coli); Tfam (human).
What all share (test): filter binding
Holding throughout (conditions): Nitrocellulose filter binding, 0.5 ml, 37 C, 30-60 min, then agarose gel. Topo IV: 40 mM Tris-HCl pH 7.5, 6 mM MgCl2, 100 mM KOAc, 1 mM DTT, 0.1 mM EDTA

Data set [1] concerns Topo IV (ParC+ParE) (Escherichia coli).
Data set [2] concerns top1mt Y559F (mitochondrial topoisomerase I) (human).
In data set [3] the test system is ntop1 Y723F (nuclear topoisomerase I) (human).

Consider “pBR322, relaxed closed circular (dLk 0; dLk -1 as reference for Topo IV and Tfam)”, for which the binding signal (Ka ratio (reference dLk -1)) (in data set [1]; in the data set with Tfam (human)) was 1 throughout. Also, the binding signal (Ka ratio (reference dLk 0)) (with EcoRV; in the data set with RecQ (Escherichia coli); in data set [2]; in data set [3]) was 1 each time.

Substance “pBR322, negatively supercoiled topoisomer dLk about -23 (unresolved band below -10)” came in with a binding signal (fold Ka vs relaxed) in data set [1] of 5.

Substance pBR322, nicked (open circular) gave a binding signal (Ka nicked/Ka relaxed) in data set [3] (nick, position undefined) of 8.6.
